Here are results for 14 variants from publication PMC7188906.

B1: human ACKR4-EYFP [human] / fluorescently labeled human CCL19^Dy649P1 [modified: Dy649P1 (as CoA conjugate) attached site-specifically to the S6-tag by the phosphopantetheinyl transferase Sfp; Dy649P1 (as CoA conjugate) attached … (parent)
chain 1: GTNDAEDCCLSVTQKPIPGYIVRNFHYLLIKDGCRVPAVVFTTLRGRQLCAPPDQPWVERIIQRLQRTSAKMKRRSS
chain 2: MALEQNQSTDYYYEENEMNGTYDYSQYELICIKEDVREFAKVFLPVFLTIVFVIGLAGNSMVVAIYAYYKKQRTKTDVYILNLAVADLLLLFTLPFWAVNAVHGWVLGKIMCKITSALYTLNFVSGMQFLACISIDRYVAVTKVPSQSGVGKPCWIICFCVWMAAILLSIPQLVFYTVNDNARCIPIFPRYLGTSMKALIQMLEICIGFVVPFLIMGVCYFITARTLMKMPNIKISRPLKVLLTVVIVFIVTQLPYNIVKFCRAIDIIYSLITSCNMSKRMDIAIQVTESIALFHSCLNPILYVFMGASFKNYVMKVAKKYGSWRRQRQSVEEFPFDSEGPTEPTSTFSI

The variants in the experiment derive from B1. Kind of experiment: flow cytometry on cells. To be noted: with fluorescently labeled human CCL19^Dy649P1 [modified: Dy649P1 (as CoA conjugate) attached site-specifically to the S6-tag by the phosphopantetheinyl transferase; 25 nM CCL19Dy649P1 at 8°C; HeLa cells; read off a plot. Background: A flow cytometer gives signals particle by particle.
Regarding chain 2 MALEQNQSTDYYYEENEMNGTYDYSQYELICIKEDVREFAKVFLPVFLTIVFVIGLAGNSMVVAIYAYYKKQRTKTDVFILNLAVADLLLLFTLPFWAVNAVHGWVLGKIMCKITSALYTLNFVSGMQFLACISIDRYVAVTKVPSQSGVGKPCWIICFCVWMAAILLSIPQLVFYTVNDNARCIPIFPRYLGTSMKALIQMLEICIGFVVPFLIMGVCYFITARTLMKMPNIKISRPLKVLLTVVIVFIVTQLPYNIVKFCRAIDIIYSLITSCNMSKRMDIAIQVTESIALFHSCLNPILYVFMGASFKNYVMKVAKKYGSWRRQRQSVEEFPFDSEGPTEPTSTFSI [chain 2 Y79F], the percent of parent was 110 % of wt.
For chain 2 MALEQNQSTDYYYEENEMNGTYDYSQYELICIKEDVREFAKVFLPVFLTIVFVIGLAGNSMVVAIYAYYKKQRTKTDVYILNLAVADLLLLFTLPFWAVNAVHGWVLGKIMCKITSALYTLNFVSGMQFLACISIDRYVAVTKVPSQSGVGKPCWIICFCVWMAAILLSIPQLVFYTVNDNARCIPIFPRYLGTSMKALIQMLEICIGFVVPFLIMGVCYFITARTLMKMPNIKISRPLKVLLTVVIVFIVTQLPYNIVKFCRAIDIIYSLITSCNMSKRMDIAIQVTESIALFHSCLNPILYVFMGAAFKNYVMKVAKKYGSWRRQRQSVEEFPFDSEGPTEPTSTFSI [chain 2 S309A], the percent of parent is 110 % of wt.
For chain 2 MALEQNQSTDYYYEENEMNGTYDYSQYELICIKEDVREFAKVFLPVFLTIVFVIGLAGNSMVVAIYAYYKKQRTKTDVYILNLAVADLLLLFTLPFWAVNAVHGWVLGKIMCKITSALYTLNFVSGMQFLACISIDRYVAVTKVPAQSGVGKPCWIICFCVWMAAILLSIPQLVFYTVNDNARCIPIFPRYLGTSMKALIQMLEICIGFVVPFLIMGVCYFITARTLMKMPNIKISRPLKVLLTVVIVFIVTQLPYNIVKFCRAIDIIYSLITSCNMSKRMDIAIQVTESIALFHSCLNPILYVFMGASFKNYVMKVAKKYGSWRRQRQSVEEFPFDSEGPTEPTSTFSI [chain 2 S146A], the percent of parent is 85 % of wt.
With chain 2 MALEQNQSTDYYYEENEMNGTYDYSQYELICIKEDVREFAKVFLPVFLTIVFVIGLAGNSMVVAIYAYYKKQRTKTDVYILNLAVADLLLLFTLPFWAVNAVHGWVLGKIMCKITSALYTLNFVSGMQFLACISIDRYVAVAKVPSQSGVGKPCWIICFCVWMAAILLSIPQLVFYTVNDNARCIPIFPRYLGTSMKALIQMLEICIGFVVPFLIMGVCYFITARALMKMPNIKISRPLKVLLTVVIVFIVTQLPYNIVKFCRAIDIIYSLITSCNMSKRMDIAIQVTESIALFHSCLNPILYVFMGAAFKNYVMKVAKKYGAWRRQRQAVEEFPFDSEGPTEPTSTFSI [chain 2 T142A T226A S309A S323A S330A], the percent of parent was 110 % of wt.
chain 2 MALEQNQSTDYYYEENEMNGTYDYSQYELICIKEDVREFAKVFLPVFLTIVFVIGLAGNSMVVAIYAYYKKQRTKTDVYILNLAVADLLLLFTLPFWAVNAVHGWVLGKIMCKITSALYTLNFVSGMQFLACISIDRYVAVTKVPSQSGVGKPCWIICFCVWMAAILLSIPQLVFYTVNDNARCIPIFPRYLGTSMKALIQMLEICIGFVVPFLIMGVCYFITARTLMKMPNIKISRPLKVLLTVVIVFIVTQLPYNIVKFCRAIDIIYSLITSCNMSKRMDIAIQVTESIALFHSCLNPILYVFMGAAFKNYVMKVAKKYGAWRRQRQAVEEFPFDSEGPTEPTSTFSI [chain 2 S309A S323A S330A]: the percent of parent was 120 % of wt.
For chain 2 MALEQNQSTDYYYEENEMNGTYDYSQYELICIKEDVREFAKVFLPVFLTIVFVIGLAGNSMVVAIYAYYKKQRTKTDVYILNLAVADLLLLFTLPFWAVNAVHGWVLGKIMCKITSALYTLNFVSGMQFLACISIDRYVAVAKVPSQSGVGKPCWIICFCVWMAAILLSIPQLVFYTVNDNARCIPIFPRYLGTSMKALIQMLEICIGFVVPFLIMGVCYFITARTLMKMPNIKISRPLKVLLTVVIVFIVTQLPYNIVKFCRAIDIIYSLITSCNMSKRMDIAIQVTESIALFHSCLNPILYVFMGASFKNYVMKVAKKYGSWRRQRQSVEEFPFDSEGPTEPTSTFSI [chain 2 T142A], the percent of parent was 90 % of wt.
Take chain 2 MALEQNQSTDYYYEENEMNGTYDYSQYELICIKEDVREFAKVFLPVFLTIVFVIGLAGNSMVVAIYAYYKKQRTKTDVYILNLAVADLLLLFTLPFWAVNAVHGWVLGKIMCKITSALYTLNFVSGMQFLACISIDRYVAVTKVPSQSGVGKPCWIICFCVWMAAILLSIPQLVFYTVNDNARCIPIFPRYLGTSMKALIQMLEICIGFVVPFLIMGVCYFITARALMKMPNIKISRPLKVLLTVVIVFIVTQLPYNIVKFCRAIDIIYSLITSCNMSKRMDIAIQVTESIALFHSCLNPILYVFMGASFKNYVMKVAKKYGSWRRQRQSVEEFPFDSEGPTEPTSTFSI [chain 2 T226A]: the percent of parent was 83 % of wt.
chain 2 MALEQNQSTDYYYEENEMNGTYDYSQYELICIKEDVREFAKVFLPVFLTIVFVIGLAGNSMVVAIYAYYKKQRTKTDVYILNLAVADLLLLFTLPFWAVNAVHGWVLGKIMCKITSALYTLNFVSGMQFLACISIDRYVAVTKVPSQSGVGKPCWIICFCVWMAAILLSIPQLVFYTVNDNARCIPIFPRYLGTSMKALIQMLEICIGFVVPFLIMGVCYFITARTLMKMPNIKIARPLKVLLTVVIVFIVTQLPYNIVKFCRAIDIIYSLITSCNMSKRMDIAIQVTESIALFHSCLNPILYVFMGASFKNYVMKVAKKYGSWRRQRQSVEEFPFDSEGPTEPTSTFSI [chain 2 S236A]: the percent of parent is 90 % of wt.
Turning to chain 2 MALEQNQSTDYYYEENEMNGTYDYSQYELICIKEDVREFAKVFLPVFLTIVFVIGLAGNSMVVAIYAYYKKQRTKTDVYILNLAVADLLLLFTLPFWAVNAVHGWVLGKIMCKITSALYTLNFVSGMQFLACISIDRYVAVTKVPSQSGVGKPCWIICFCVWMAAILLSIPQLVFYTVNDNARCIPIFPRYLGTSMKALIQMLEICIGFVVPFLIMGVCYFITARTLMKMPNIKISRPLKVLLTVVIVFIVTQLPYNIVKFCRAIDIIYSLITSCNMSKRMDIAIQVTESIALFHSCLNPILYVFMGASFKNYVMKVAKKYGAWRRQRQSVEEFPFDSEGPTEPTSTFSI [chain 2 S323A], the percent of parent is 87 % of wt.
Take chain 2 MALEQNQSTDYYYEENEMNGTYDYSQYELICIKEDVREFAKVFLPVFLTIVFVIGLAGNSMVVAIYAYYKKQRTKTDVYILNLAVADLLLLFTLPFWAVNAVHGWVLGKIMCKITSALYTLNFVSGMQFLACISIDRYVAVTKVPSQSGVGKPCWIICFCVWMAAILLSIPQLVFYTVNDNARCIPIFPRYLGTSMKALIQMLEICIGFVVPFLIMGVCYFITARTLMKMPNIKISRPLKVLLTVVIVFIVTQLPYNIVKFCRAIDIIYSLITSCNMSKRMDIAIQVTESIALFHSCLNPILYVFMGASFKNYVMKVAKKYGSWRRQRQAVEEFPFDSEGPTEPTSTFSI [chain 2 S330A]: the percent of parent is 83 % of wt.
On to chain 2 MALEQNQSTDYYYEENEMNGTYDYSQYELICIKEDVREFAKVFLPVFLTIVFVIGLAGNSMVVAIYAYYKKQRTKTDVYILNLAVADLLLLFTLPFWAVNAVHGWVLGKIMCKITSALYTLNFVSGMQFLACISIDRYVAVAKVPSQSGVGKPCWIICFCVWMAAILLSIPQLVFYTVNDNARCIPIFPRYLGTSMKALIQMLEICIGFVVPFLIMGVCYFITARALMKMPNIKISRPLKVLLTVVIVFIVTQLPYNIVKFCRAIDIIYSLITSCNMSKRMDIAIQVTESIALFHSCLNPILYVFMGASFKNYVMKVAKKYGSWRRQRQSVEEFPFDSEGPTEPTSTFSI [chain 2 T142A T226A], for which the percent of parent is 90 % of wt.
For the variant chain 2 MALEQNQSTDYYYEENEMNGTYDYSQYELICIKEDVREFAKVFLPVFLTIVFVIGLAGNSMVVAIYAFYKKQRTKTDVYILNLAVADLLLLFTLPFWAVNAVHGWVLGKIMCKITSALYTLNFVSGMQFLACISIDRYVAVTKVPSQSGVGKPCWIICFCVWMAAILLSIPQLVFYTVNDNARCIPIFPRYLGTSMKALIQMLEICIGFVVPFLIMGVCYFITARTLMKMPNIKISRPLKVLLTVVIVFIVTQLPYNIVKFCRAIDIIYSLITSCNMSKRMDIAIQVTESIALFHSCLNPILYVFMGASFKNYVMKVAKKYGSWRRQRQSVEEFPFDSEGPTEPTSTFSI [chain 2 Y68F], the percent of parent was 93 % of wt.
As to chain 2 MALEQNQSTDYYYEENEMNGTYDYSQYELICIKEDVREFAKVFLPVFLTIVFVIGLAGNSMVVAIYAYYKKQRTKTDVYILNLAVADLLLLFTLPFWAVNAVHGWVLGKIMCKITSALYTLNFVSGMQFLACISIDRYVAVTKVPSQAGVGKPCWIICFCVWMAAILLSIPQLVFYTVNDNARCIPIFPRYLGTSMKALIQMLEICIGFVVPFLIMGVCYFITARTLMKMPNIKISRPLKVLLTVVIVFIVTQLPYNIVKFCRAIDIIYSLITSCNMSKRMDIAIQVTESIALFHSCLNPILYVFMGASFKNYVMKVAKKYGSWRRQRQSVEEFPFDSEGPTEPTSTFSI [chain 2 S148A], the percent of parent is 85 % of wt.
Under chain 2 MALEQNQSTDYYYEENEMNGTYDYSQYELICIKEDVREFAKVFLPVFLTIVFVIGLAGNSMVVAIYAYYKKQRTKTDVYILNLAVADLLLLFTLPFWAVNAVHGWVLGKIMCKITSALYTLNFVSGMQFLACISIDRFVAVTKVPSQSGVGKPCWIICFCVWMAAILLSIPQLVFYTVNDNARCIPIFPRYLGTSMKALIQMLEICIGFVVPFLIMGVCYFITARTLMKMPNIKISRPLKVLLTVVIVFIVTQLPYNIVKFCRAIDIIYSLITSCNMSKRMDIAIQVTESIALFHSCLNPILYVFMGASFKNYVMKVAKKYGSWRRQRQSVEEFPFDSEGPTEPTSTFSI [chain 2 Y138F] stands 72 % of wt.
